T1: Recombinant human Glypican-1 protein (Homo sapiens, UniProt P35052)
T1 construct: purchased R&D systems 4519-GP-050
T1 sequence (P35052 24-530 limits assumed): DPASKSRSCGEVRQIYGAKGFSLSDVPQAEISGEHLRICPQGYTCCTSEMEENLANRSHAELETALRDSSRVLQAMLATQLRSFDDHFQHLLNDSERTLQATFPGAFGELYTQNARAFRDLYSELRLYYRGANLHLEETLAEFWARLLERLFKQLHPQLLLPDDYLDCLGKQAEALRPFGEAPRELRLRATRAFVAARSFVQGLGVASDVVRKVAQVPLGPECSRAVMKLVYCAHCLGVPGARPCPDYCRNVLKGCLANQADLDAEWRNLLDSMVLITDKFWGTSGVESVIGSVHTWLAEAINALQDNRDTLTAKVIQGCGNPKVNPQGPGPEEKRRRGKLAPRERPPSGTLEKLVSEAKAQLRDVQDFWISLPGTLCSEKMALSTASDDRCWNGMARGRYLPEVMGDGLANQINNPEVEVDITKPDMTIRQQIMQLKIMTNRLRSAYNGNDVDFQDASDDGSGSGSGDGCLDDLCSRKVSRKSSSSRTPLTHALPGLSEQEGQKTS

B1: clone 01a033 (antibody)
heavy: QVQLKQSGPELVKPGASVKISCKASGYSFTGYYMHWVKQSPEKSLEWIGEINPSTGDTTYNQKFKAKATLTVDKSSSTAYMQLKSLTSEDSAVYYCAREKRDDGVFAYWGQGTLVTVSSAKTTAPSVYPLAPVCGDTTGSSVTLGCLVKGYFPEPVTLTWNSGSLSSGVHTFPAVLQSDLYTLSSSVTVTSSTWPSQSITCNVAHPASSTKVDKKIEPRGPTIKPCPPCKCPAPNLLGGPSVFIFPPKIKDVLMISLSPIVTCVVVDVSEDDPDVQISWFVNNVEVHTAQTQTHREDYNSTLRVVSALPIQHQDWMSGKEFKCKVNNKDLPAPIERTISKPKGSVRAPQVYVLPPPEEEMTKKQVTLTCMVTDFMPEDIYVEWTNNGKTELNYKNTEPVLDSDGSYFMYSKLRVEKKNWVERNSYSCSVVHEGLHNHHTTKSFSRTPGK
light: DIVMSQSPKSMSMSVGERVALSCKASENVGTYVSWYQQKPEQSPKLLIYGASNRYTGVPDRFTGSGSATDFTLTISSVQAEDLADYYCGQSYSYPLTFGAGTKLELKRADAAPTVSIFPPSSEQLTSGGASVVCFLNNFYPKDINVKWKIDGSERQNGVLNSWTDQDSKDSTYSMSSTLTLTKDEYERHNSYTCEATHKTSTSPIVKSFNRNEC
B2: GPC1 ADC (conjugate)
heavy: B1 heavy
light: B1 light

What was measured:
[1] = target: T1, Recombinant human Glypican-1 protein; assay: Antigen affinity analysis by ELISA on immobilized recombinant human GPC1; type: binding; details: for affinity to antigen (ELISA, OD 450 nm): recombinant human GPC1 coated at 2.5 μg/mL
Method: The buffer used in this Example was prepared as follows.
The primary antibodies used in this Example were prepared. GPC1-CL-MMAF and anti-GPC1 monoclonal antibodies (01a033) were diluted stepwise to 100, 20, 4, 0.8, 0.16, 0.032, 0.0064, 0.00128, 0.000256, 0.0000512, and 0.00001024 nM with a dilution buffer. Recombinant human Glypican-1 proteins (CF, model number: 4519-GP-050, volume: 50 μg) were used as the antigen.
Recombinant human GPC1 was diluted to 2.5 μg/mL with PBS (−) and added to 64 wells of Immuno 96 well MicroWell Solid Plate (Maxisorp, Nunc) at 50 μL/well, and the plate was sealed. The plate was shaken, and liquid was confirmed to spread throughout the plate. Next, the following procedure was followed.
*Dilute (1) GPC1-CL-MMAF and (2) anti-GPC1 monoclonal antibody (01a033) with a dilution buffer in a 10-fold dilution series from 100 nM, and add the mixture to the 96-well microplate at 100 μL/well.
*Dilute Anti-Mouse IgG (H+L) Antibody, Human Serum Adsorbed and Peroxidase labeled (KPL, cat. No.: 474-1806) with a dilution buffer (10% Block Ace) to 0.2 μg/ml (prepare a 5000-fold dilution upon use), and add the mixture to the 96-well microplate at 100 μL/well.
*Return TMB (SurModics, TMBW-1000-01) to normal temperature before use, and add the TMB to the 96-well microplate at 100 μL/well.
*Measure absorbance at 450 nm.
*Analyze data with GraphPad Prism 6.04.

LLC-mGPC1-16 = assay: In vivo efficacy test on GPC1 ADC, mouse syngenic model using mGPC1 expressing LLC cell strain
Text: A mouse model (syngenic mouse) with GPC1 expressed in normal cells that is consistent with GPC1 expressed from cancer cells (i.e., both mouse GPC1) can be prepared by grafting the cell strain expressing mouse GPC1 established in Example 16 into mice. The efficacy and safety can be more accurately evaluated in an experiment using such a mouse model.
FIG. 55 schematically depicts the test in this Example. Specifically, 5.0×10^6 cells of LLC-mGPC1-16 were subcutaneously grafted into female C57BL/6 mice. […] The tumor volume and body weight were measured on day 0, day 4, day 8, day 12, day 16, day 20, and day 24.

BxPC3 cell strain = assay: In vivo efficacy test on GPC1 ADC using pancreatic cancer cell strain BxPC3 in SCID mice; set-up: species or system mouse
Method: Specifically, 5.0×10^6 cells of the BxPC3 cell strain were subcutaneously grafted into female SCID mice. […] The tumor volume and body weight were measured on day 0, day 4, day 8, day 12, day 16, day 20, day 24, day 28, day 32, and day 36.
After subcutaneous tumorigenesis of BxPC3, (1) PBS, (2) control ADC at 10 mg/kg, and (3) GPC1-ADC at 1 mg/kg, 3 mg/kg, and 10 mg/kg were administered once into the tail vein. The tumor was extracted after 24 hours. After deparaffinization of a section of a paraffin embedded tissue, the slice was dehydrated with alcohol.
Immunohistochemical staining on Phospho-Histon H3 (Ser10) was performed using an anti-Phospho-Histon H3 (Ser10) antibody (Cell Signaling Technology: #9701) and ChemMate Envision kit HRP 500T (Dako: K5007).

Row | Molecule | affinity to antigen (ELISA, OD 450 nm) [1] | antitumor effect against tumor expressing mouse GPC-1 (LLC-mGPC1-16; 1, 3, 10 mg/kg) | affinity level of ADC compared with unlabeled antibody ([1]; 01a033 versus 01a033 ADC) | tumor volume (BxPC3 cell strain; 3 mg/kg iv day 0, 4, 8, 12) | tumor volume (BxPC3 cell strain; 10 mg/kg iv day 0, 4, 8, 12) | change in the body weight (BxPC3 cell strain; any dosage tested (1, 3, 10 mg/kg)) | antitumor effect (tumor volume, tumor weight day 36) (BxPC3 cell strain; iv day 0, 4, 8, 12, anti-GPC1 ADC 1, 3, 10 mg/kg (all groups), control ADC 10 mg/kg) | G2/M phase arrest in tumor tissue (Phospho-Histon H3 (Ser10) staining) (BxPC3 cell strain; single tail vein dose 1, 3, 10 mg/kg, tumor extracted after 24 hours) | tumor growth (LLC-mGPC1-16; 1 mg/kg iv day 0, 4, 8, 12, compared to the control group) | tumor growth (LLC-mGPC1-16; 3 mg/kg iv day 0, 4, 8, 12) | tumor growth (LLC-mGPC1-16; 10 mg/kg iv day 0, 4, 8, 12) | body weight (LLC-mGPC1-16; 10 mg/kg, tended to recover after 15 days from the start of administration) | toxicity (LLC-mGPC1-16; syngenic mice, 1, 3, 10 mg/kg)
1 | B1 | high affinity | high antitumor effect | – | – | – | – | – | – | – | – | – | – | –
2 | B2 | high affinity | – | about the same | tumor volume was significantly reduced | tumor volume was significantly reduced | significant change in the body weight was not observed | significant antitumor effect | resulted in G2/M phase arrest | significantly delayed | Tumor hardly grew | Tumor hardly grew | transient decrease in body weight | Significant toxicity was not observed
